# According to patent publication US20200199533A1 (KING ABDULLAH UNIVERSITY OF SCIENCE AND TECHNOLOGY, published 2020):
# T1: PSGL-1, native glycoprotein from human HSPCs (KG1a, CD34^pos-BM) (human, UniProt Q14242 42-412, native glycosylation and tyrosine sulfation)
# T1 construct: mature; also called P-selectin glycoprotein ligand-1
# T1 sequence (looked up): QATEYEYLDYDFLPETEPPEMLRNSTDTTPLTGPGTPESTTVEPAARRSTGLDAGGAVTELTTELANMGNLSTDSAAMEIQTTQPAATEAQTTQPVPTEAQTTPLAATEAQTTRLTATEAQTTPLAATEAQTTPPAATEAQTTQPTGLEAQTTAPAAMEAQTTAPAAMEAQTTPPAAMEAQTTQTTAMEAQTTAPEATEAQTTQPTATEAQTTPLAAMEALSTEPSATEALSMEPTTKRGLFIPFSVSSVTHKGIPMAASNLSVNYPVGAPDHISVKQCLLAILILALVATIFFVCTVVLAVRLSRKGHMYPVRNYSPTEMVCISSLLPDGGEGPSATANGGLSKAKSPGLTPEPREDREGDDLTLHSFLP
# B1: CD34, native glycoprotein from human HSPCs (KG1a, CD34^pos-BM, CD34^pos-UCB, CD34^pos-AML) (ligand, UniProt P28906 32-385, looked up)
# chain: SLDNNGTATPELPTQGTFSNVSTNVSYQETTTPSTLGSTSLHPVSQHGNEATTNITETTVKFTSTSVITSVYGNTNSSVQSQTSVISTVFTTPANVSTPETTLKPSLSPGNVSDLSTTSTSLATSPTKPYTSSSPILSDIKAEIKCSGIREVKLTQGICLEQNKTSSCAEFKKDRGEGLARVLCGEEQADADAGAQVCSLLLAQSEVRPQCLLLVLANRTEISSKLQLMKKHQSDLKKLGILDFTEQDVASHQSYSQKTLIALVTSGALLAVLGITGYFLMNRRSWSPTGERLGEDPYYTENGGGQGYSSGPGTSPEAQGKASVNRGAQENGTGQATSRNGHSARQHVVADTEL
# modifications: native glycosylation (about 120-130 kDa form); sialylated O-glycans and tyrosine sulfation are shown to matter for selectin binding
# notes: mature; also called E-selL CD34
# Columns and labels:
# [1] = target: CD34, native glycoprotein from human HSPCs (KG1a, CD34^pos-BM, CD34^pos-UCB, CD34^pos-AML) (human) (UniProt P28906); assay: Stamper-Woodruff assay, CHO-P cells on CD34 immunoprecipitate from CD34^pos-BM
# [2] = target: CD34, native glycoprotein from human HSPCs (KG1a, CD34^pos-BM, CD34^pos-UCB, CD34^pos-AML) (human) (UniProt P28906); assay: Stamper-Woodruff assay, CHO-P cells on CD34 immunoprecipitate from KG1a
# [3] = target: CD34, PNGaseF-treated (human) (UniProt P28906); assay: SPR; CD34 captured on 4H11 from PNGaseF-treated KG1a lysate; koff-apparent similar to the control
# [4] = target: CD44 (HCELL), native glycoprotein from human HSPCs (KG1a, CD34^pos fraction) (human) (UniProt P16070); assay: SPR, capture of CD44 from KG1a lysate on immobilized Hermes-3, before normalization
# [5] = target: CD44 (HCELL), native glycoprotein from human HSPCs (KG1a, CD34^pos fraction) (human) (UniProt P16070); assay: SPR, capture of CD44 from KG1a lysate on immobilized Hermes-3, estimated from Equation 1
# [6] = target: CD44 (HCELL), native glycoprotein from human HSPCs (KG1a, CD34^pos fraction) (human) (UniProt P16070); assay: SPR, dissociation of captured CD44 from immobilized Hermes-3 during the wash after the lysate injection, s^-1 as in paragraph 58; fits the 8.6-fold ratio of paragraph 58
# [7] = target: CD34, native glycoprotein from human HSPCs (KG1a, CD34^pos-BM, CD34^pos-UCB, CD34^pos-AML) (human) (UniProt P28906); assay: Stamper-Woodruff assay, CHO-E cells on CD34 immunoprecipitate from KG1a
# [8] = target: CD34, native glycoprotein from human HSPCs (KG1a, CD34^pos-BM, CD34^pos-UCB, CD34^pos-AML) (human) (UniProt P28906); assay: Stamper-Woodruff assay, CHO-E cells on CD34 immunoprecipitate from CD34^pos-BM
# [9] = target: T1, PSGL-1, native glycoprotein from human …; assay: SPR; PSGL-1 captured from KG1a lysate on KPL-1-mAb; apparent association rate
# [10] = target: T1, PSGL-1, native glycoprotein from human …; assay: SPR; PSGL-1 captured from KG1a lysate on KPL-1-mAb; apparent rate constant; exponent printed as 10^4, read as 10^-4
# [11] = target: B1; assay: SPR; CD34 captured from KG1a lysate on 563-mAb; apparent association rate
# [12] = target: B1; assay: SPR, steady-state fit of consecutive P-Ig injections (labels 5.6 to 1000 under the steps) in CaCl2 over CD34 captured from KG1a lysate on 563-mAb, 150 mM NaCl; the run shown; no rise in the P-Ig/EDTA step
# [13] = target: B1; assay: SPR; CD34 captured on 563-mAb against PSGL-1 captured on KPL-1-mAb
# [14] = target: B1; assay: SPR; CD34 captured from KG1a lysate on 563-mAb; apparent rate constant
# [15] = target: T1, PSGL-1, native glycoprotein from human …; assay: SPR; PSGL-1 captured from KG1a lysate on KPL-1-mAb, P-Ig injected, 2 mM CaCl2, 25 C; steady-state model; mean
# [16] = target: T1, PSGL-1, native glycoprotein from human …; assay: SPR, steady-state fit of consecutive P-Ig injections (labels 5.6 to 1000 under the steps) in CaCl2 over PSGL-1 captured from KG1a lysate on KPL-1-mAb, 150 mM NaCl; the run shown; no rise in the P-Ig/EDTA step
# [17] = target: B1; assay: SPR; CD34 captured from KG1a lysate on 563-mAb, P-Ig injected, 2 mM CaCl2, 25 C; steady-state model; mean
# [18] = target: T1, PSGL-1, native glycoprotein from human …; assay: CD34 immunoprecipitation, Western blot for PSGL-1 (KPL-1-mAb)
# Excerpt: FIG. 7A is an autoradiograph of Western blots of P-Ig immunoprecipitates from KG1a and CD34^pos-BM lysates probing for CD34 (QBend-10 and EP373Y mAb) or PSGL-1 using KPL-1-mAb. Note that CD34 immunoprecipitates were free from any PSGL-1 contamination. (n=3 independent experiment). FIG. 7B is an autoradiograph of Western blots of CD34 and PSGL-1 immunoprecipitates probed with P-Ig (n=3). FIG. 7C is an autoradiograph of Western blots of E-Ig immunoprecipitates of E-sels from KG1 lysate that were eluted with 30 mM EDTA. The eluate was then immunoprecipitated with CD34-mAbs (4H11 and 581) prior to Western blot analysis with CD34, E-Ig, and P-Ig (n=2 independent experiments). FIG. 7D is a bar graph of Bound cells/field for adherent CHO-P cells. CD34 immunoprecipitates were prepared from CD34^pos-BM and KG1a lysates and spotted on glass slides to test for CHO-P binding using a Stamper-Woodruff assay. n=2 independent experiments. FIG. 7E is a bar graph of # of rolling cells per field showing Adhesion bar graph representing results obtained for the blot-rolling assay using CHO-P cell rolling at 0.25 dyne/cm² (rolling cells/field) over Western blots of immunoprecipitated CD34, CD44, CD43, or PSGL-1 from KG1a cell lysates. EDTA was used as a buffer (gray bars) or CHO-M cells (white bars). […] The resulting proteins were analyzed by Western blot for P-Ig binding.
# Chain of CD44 (HCELL), native glycoprotein from human HSPCs (KG1a, CD34^pos fraction) (human) (P16070 21-742): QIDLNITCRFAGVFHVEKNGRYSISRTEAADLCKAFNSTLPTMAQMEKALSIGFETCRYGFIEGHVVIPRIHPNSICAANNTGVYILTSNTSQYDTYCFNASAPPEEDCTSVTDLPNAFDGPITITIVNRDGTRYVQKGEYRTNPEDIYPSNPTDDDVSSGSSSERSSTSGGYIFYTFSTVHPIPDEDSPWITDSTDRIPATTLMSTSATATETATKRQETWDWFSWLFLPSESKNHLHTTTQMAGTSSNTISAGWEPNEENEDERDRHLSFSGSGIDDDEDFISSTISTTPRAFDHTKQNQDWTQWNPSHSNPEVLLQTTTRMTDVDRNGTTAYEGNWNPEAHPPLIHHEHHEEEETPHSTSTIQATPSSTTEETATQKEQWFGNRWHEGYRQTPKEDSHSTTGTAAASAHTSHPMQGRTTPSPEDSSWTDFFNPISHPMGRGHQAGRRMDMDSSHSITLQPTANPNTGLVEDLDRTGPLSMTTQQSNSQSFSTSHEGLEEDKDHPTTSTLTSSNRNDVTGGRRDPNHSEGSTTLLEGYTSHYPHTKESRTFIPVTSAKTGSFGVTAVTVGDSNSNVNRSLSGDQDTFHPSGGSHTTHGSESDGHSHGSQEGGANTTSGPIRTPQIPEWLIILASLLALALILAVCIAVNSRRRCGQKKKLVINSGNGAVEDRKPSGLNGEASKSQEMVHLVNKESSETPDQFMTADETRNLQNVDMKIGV
molecule,measurement,setting,value
P-selectin expressed on CHO-P cells (receptor),bound cells per field (bound cells per field),[1],8
same,bound cells per field (bound cells per field),[2],41
recombinant E-selectin human immunoglobulin chimeric protein (Fc fusion),fold reduction in RUmax against the control lysate,[3],1.4 fold
CD44-mAb Hermes-3 (antibody),RUmax at the end of the lysate injection,[4],559 RU
same,ligand-capturing efficiency,[5],20.2%
same,koff,[6],5e-05 s⁻¹
E-selectin expressed on CHO-E cells (receptor),bound cells (bound cells/field),[7],26
same,bound cells (bound cells/field),[8],14
Recombinant P-selectin human immunoglobulin chimeric protein (Fc fusion) WTYHYSTKAYSWNISRKYCQNRYTDLVAIQNKNEIDYLNKVLPYYSSYYWIGIRKNNKTWTWVGTKKALTNEAENWADNEPNNKRNNEDCVEIYIKSPSAPGKWNDEHCLKKKHALCYTASCQDMSCSKQGECLETIGNYTCSCYPGFYGPECEYVRECGELELPQHVLMNCSHPLGNFSFNSQCSFHCTDGYQVNGPSKLECLASGIWTNKPPQCLAAQCPPLKIPERGNMTCLHSAKAFQHQSSCSFSCEEGFALVGPEVVQCTASGVWTAPAPVCKAVQCQHLEAPSEGTMDCVHPLTAFAYGSSCKFECQPGYRVRGLDMLRCIDSGHWSAPLPTCEAISCEPLESPVHGSMDCSPSLRAFQYDTNCSFRCAEGFMLRGADIVRCDNLGQWTAPAPVCQALQCQDLPVPNEARVNCSHPFGAFRYQSVCSFTCNEGLLLVGASVLQCLATGNWNSVPPECQAIPCTPLLSPQNGTMTCVQPLGSSSYKSTCQFICDEGYSLSGPERLDCTRSGRWTDSPPMCEAIKCPELFAPEQGSLDCSDTRGEFNVGSTCHFSCDNGFKLEGPNNVECTTSGRWSATPPTCKGIASLPTPGVQCPALTTPGQGTMYCRHHPGTFGFNTTCYFGCNAGFTLIGDSTLSCRPSGQWTAVTPACRAVKCSELHVNKPIAMNCSNLWGNFSYGSICSFHCLEGQLLNGSAQTACQENGHWSTTVPTCQAGPLTIQEA,kon,[9],474 M⁻¹ s⁻¹
same,koff,[10],0.0002 s⁻¹
same,kon,[11],452 M⁻¹ s⁻¹
same,Kd,[12],~622 nM
same,fold weaker KD than P-Ig to PSGL-1,[13],~1.7 fold
same,koff,[14],0.0003 s⁻¹
same,Kd,[15],372 nM
same,Kd,[16],~373 nM
same,Kd,[17],621 nM
B1,binding result,[18],no binding
